Experimental data reported in US20090297524A1 (DOMANTIS, published 2009).
Changes are numbered by the printed parent chain.

B1: DOM.127 (other)
VH: EVQLLESGGGLVQPGGSLRLSCAASGFTFPSYDMAWVRQAPGKGLEWVSGISRSGSMTYYADSVKGRFTISRDNSKNTLYLQMNSLRAEDTAVYYCAKGVDAHVYYMEPFFDYWGQGTLVTVSS
notes: VH dAb
B2: DOM.133 (other)
VH: EVQLLESGGGLVQPGGSLRLSCAASGFTFIGYAMAWVRQAPGKGLEWVSSIGPLGATTYYADSVKGRFTISRDNSKNTLYLQMNSLRAEDTAVYYCAKLPAGTSSHSVDFDYWGQGTLVTVSS
notes: VH dAb
B3: DOM8.111 (other)
VH: EVQLLESGGGLVQPGGSLRLSCAASGFTFERYPMTWVRQAPGKGLEWVSTIHGSGSATYYADSVKGRFTISRDNSKNTLYLQMNSLRAEDTAVYYCAKGPYTSRHNSLGHFDYWGQGTLVTVSS
notes: VH dAb
B4: DOM.126 (other)
VH: EVQLLESGGGLVQPGGSLRLSCAASGFTFANYSMSWVRQAPGKGLEWVSSIDRLGTHTYYADSVKGRFTISRDNSKNTLYLQMNSLRAEDTAVYYCAKVLADLIAGHAEFDYWGQGTLVTVSS
notes: VH dAb
B5: DOM-68 (other)
VH: EVQLLESGGGLVQPGGSLRLSCAASGFTFKDYEMTWVRQAPGKGLEWVSSISSTGQSTYYADSVKGRFTISRDNSKNTLYLQMNSLRAEDTAVYYCAKPGNKFDYWGQGTLVTVSS
notes: VH dAb
B6: DOM.184 (other)
VH: B5 VH with K30S, T35M, S52T, T54H, Q56G, G100D, N101K, K102D
notes: VH dAb
B7: DOM-74 (other)
VH: EVQLLESGGGLVQPGGSLRLSCAASGFTFSDYPMTWVRQAPGKGLEWVSTILSPGTETYYADSVKGRFTISRDNSKNTLYLQMNSLRAEDTAVYYCAKAEKDFDYWGQGTLVTVSS
notes: VH dAb
B8: DOM.180 (other)
VH: B5 VH with K30T, T35G, S50T, S52T, T54L, Q56E, N101R, K102I
notes: VH dAb
B9: DOM.129 (other)
VH: B5 VH with K30P, D31K, T35A, S52D, S53G, T54D, Q56K, G100D, N101Q, K102F
notes: VH dAb
B10: DOM.186 (other)
VH: EVQLLESGGGLVQPGGSLRLSCAASGLTFGRYEMAWVRQAPGKGLEWVSSIDSDGWVTYYADSVKGRFTISRDNSKNTLYLQMNSLRAEDTAVYYCAQPDSLFDYWGQGTLVTVSS
notes: VH dAb
B11: DOM.206 (other)
VH: B5 VH with K30A, D31S, S50G, T54D, Q56L, N101V, K102L
notes: VH dAb
B12: DOM-84 (other)
VH: EVQLLESGGGLVQPGGSLRLSCAASGFTFRQYQMAWARQAPGKGLEWVSTIASDGVSTYYADSVKGRFTISRDNSKNTLYLQMNSLRAEDTAVYYCAKVGRDFDYWGQGTLVTVSS
notes: VH dAb
B13: DOM.130 (other)
VH: EVQLLESGGGLVQPGGSLRLSCTASGFTFAGYQMSWVRQAPGKGLEWVSSITNEGVSTYYADSVKGRFTISRDNSKNTLYLQMNSLRAEDTAVYYCAKPGKYFDYWGQGTLVTVSS
notes: VH dAb
B14: DOM.205 (other)
VH: B12 VH with R30A, Q31S, A37V, T50G, A52T, D54G, V56L, V99P, D102G
notes: VH dAb
B15: DOM-83 (other)
VH: B12 VH with R30A, Q31L, A37V, T50S, A52D, D54S, V56S, S57D, V99P, G100E
notes: VH dAb
B16: DOM-78 (other)
VH: B12 VH with R30E, Q31R, A37V, A52S, V56G, S57G, V99P, R101H, D102R
notes: VH dAb
B17: DOM.128 (other)
VH: B12 VH with R30E, Q31R, A37V, A52S, V56G, S57G, V99P, R101T, D102V
notes: VH dAb
B18: DOM-73 (other)
VH: EVQLLESGGGLVQPGGSLRLSCAASGFTFSKYDMSWVRQAPGKGLEWVSTILEDGLTTYYADSVKGRFTISRDNSKNTLYLQMNSLRAEDTAVYYCAKPGRLFDYWGQGTLVTVSS
notes: VH dAb
B19: DOM.134 (other)
VH: B5 VH with K30A, S52T, T54D, Q56V, G100S, N101V, K102Q
notes: VH dAb
B20: DOM.190 (other)
VH: B18 VH with K31M, S35H, E53S, L56T, T57D, P99Y, R101A, L102M
notes: VH dAb
B21: DOM.178 (other)
VH: EVQLLESGGGLVQPGGSLRLSCAASGFTFEDFDMAWVRQAPGKGLEWVSSINDQGSLTYYADSVKGRFTISRDNSKNTLYLQMNSLRAEDTAVYYCAKPDQFFDYWGQGTLVTVSS
notes: VH dAb
B22: DOM.208 (other)
VH: B13 VH with T23A, A30T, G31E, Q33E, T52D, E54V, V56S, Y102L
notes: VH dAb
B23: DOM.196 (other)
VH: B5 VH with K30S, D31G, T35A, S52T, S53D, T54M, Q56D, N101T, K102A, Q108P
notes: VH dAb
B24: DOM.131 (other)
VH: B5 VH with K30G, D31E, T35V, S52T, T54D, Q56L, N101I, K102R
notes: VH dAb
B25: DOM-80 (other)
VH: B10 VH with L27F, E33Q, D52S, W56G, V57G, Q98K, D100S, S101R, L102R
notes: VH dAb
B26: DOM.113 (other)
VH: EVQLLESGGGLVQPGGSLRLSCAASGFTFTEYPMSWVRQAPGKGLEWVSVISPLGFTTYYADSVKGRFTISRDNSKNTLYLQMNSLRAEDTAVYYCAKWTGGSGILNSSFDYWGQGTLVTVSS
notes: VH dAb
B27: DOM.100 (other)
VL: DIQMTQSPSSLSASVGDRVTITCRASQNIKHSLRWYQQKPGKAPRLLIYHRSQLQSGVPSRFSGSGSGTDFTLTISSLQPEDFATYYCQQVRHRPYTFGQGTKVEIKR
notes: Vk dAb
B28: DOM.102 (other)
VL: B27 VL with N28H, K30G, S32H, R45K, Q53H, F83S, V91W, R92D, H93R, R94P
notes: Vk dAb
B29: DOM.99 (other)
VH: EVQLLESGGGLVQPGGSLRLSCAASGFTFEDYAMSWVRQAPGKGLEWVSTITPGGFWTYYADSVKGRFTISRDNSKNTLYLQMNSLRAEDTAVYYCAKTSSGELQLVEDFDYWGQGTLVTVSS
notes: VH dAb
B30: DOM.114 (other)
VH: EVQLLESGGGLVQPGGSLRLSCAASGFRVSNYDLTWVRQAPGKGLEWVSTISATNGSTYYADSVKGRFTISRDNSKNTLYLQMNSLRAEDTAVYYCAAVTWWLLRHNDNLGFWGQGTLVTVSS
B31: DOM.132 (other)
VH: B21 VH with E30A, F32Y, S50G, N52V, Q54D, S56L, L57M, Q101V, F102A, S116N
notes: VH dAb
B32: DOM.124 (other)
VH: EVQLLESGGGLVQPGGSLRLSCAASGFTFKRYDMDWVRQAPGKGLEWVSTIGSSGYPTYYADSVKGRFTISRDNSKNTLYLQMNSLRAEDTAVYYCAERMPGYFPGFARQFDYWGQGTLVTVSS
notes: VH dAb
B33: DOM.112 (other)
VH: EVQLLESGGGLVQPGGSLRLSCAASGFTFMDYPMGWVRQAPGKGLEWVSSIGPVGMSTYYADSVKGRFTISRDNSKNTLYLQMNSLRAEDTAVYYCAKYGGTSGRHNTKFDYWGQGTLVTVSS
notes: VH dAb
B34: DOM.121 (other)
VH: EVQLLESGGGLVQPGGSLRLSCAASGFTFELYRMSWVRQAPGKGLEWVSEISGSGFPTYYADSVKGRFTISRDNSKNTLYLQMNSLRAEDTAVYYCAKSLHDKTQHHQEFDYWGQGTLVTVSS
notes: VH dAb
B35: DOM.115 (other)
VH: EVQLLESGGGLVQPGGSLRLSCAASGFSISYKNMAWVRQAPGKGLEWVSAIKAANGSTYYADSVKGRFTISRDNSKNTLYLQMNSLRAEDTAVYYCATGSQKKRTYTFDFWGQGTLVTVSS
B36: DOM.120 (other)
VH: EVQLLESGGGLVQPGGSLRLSCAASGFTFRSYTMGWVRQAPGKGLEWVSSINPMGYQTYYADSVKGRFTISRDNSKNTLYLQMNSLRAEDTAVYYCAKHGVGKGTKPHNFDYWGQGTLVTVSS
notes: VH dAb
B37: DOM.125 (other)
VH: EVQLLESGGGLVQPGGSLRLSCAASGFTFWRYAMGWVRQAPGKGLEWVSTINDEGRETYYADSVKGRFTISRDNSKNTLYLQMNSLRAEDTAVYYCAKKRVSSSVNAPYEFDYWGQGTLVTVSS
notes: VH dAb
B38: DOM.123 (other)
VH: EVQLLESGGGLVQPGGSLRLSCAASGFTFIEYPMRWVRQAPGKGLEWVSLISPSGVFTYYADSVKGRFTISRDNSKNTLYLQMNSLRAEDTAVYYCAKGDESSTFDYWGQGTLVTVSS
notes: VH dAb

target: T1, Recombinant human CD40L (human, UniProt P29965 108-261, limits assumed); assay: CD40L/CD40-Fc receptor binding assay;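 also: plate assay with coated human CD40-Fc, bound ligand detected via HRP anti-biotin antibody and TMB, OD at 450 nm, lower signal indicates stronger inhibition by dAb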
T1 construct: also called CD40 ligand
T1 sequence (looked up): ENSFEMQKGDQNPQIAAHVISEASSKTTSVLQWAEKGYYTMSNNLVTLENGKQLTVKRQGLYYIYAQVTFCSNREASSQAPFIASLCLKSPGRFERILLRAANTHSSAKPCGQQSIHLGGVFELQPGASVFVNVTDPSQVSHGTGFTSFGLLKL
Method: A 96 well Nunc Maxisorp assay plate was coated overnight at 4° C. with 100 μl per well of recombinant human CD40/Fc (R&D Systems) at 0.5 μg/ml in carbonate buffer. The plate was washed 3 times with 300 μl of 0.05% Tween/PBS and 3 times with 300 μl of PBS using a Tecan plate washer. The wells were blocked using 200 μl of PBS containing 2% (w/v) BSA and incubated for a minimum of 1 h at room temperature. The wells were washed as above, then 50 μl of purified dAb protein (or unpurified supernatant containing dAb from a micro-culture expression) was added to each well.
The plate was washed as described above, then 100 μl HRP conjugated anti-biotin antibody (1:5000 dilution in diluent) added to each well and the plate incubated for 1 hr at room temperature. The plate was washed again as described above using a Tecan plate washer and the assay developed using 100 μl of SureBlue 1-Component TMB MicroWell Peroxidase solution (the plate was left at room temperature for up to 20 min). The reaction was stopped by the addition of 100 μl M hydrochloric acid. The OD₄₅₀ₙₘ of the plate was assayed within 30 minutes of acid addition. The OD₄₅₀ₙₘ is proportional to the amount of bound streptavidin-HRP conjugate, therefore the greater the degree of dAb inhibition the lower the OD₄₅₀ₙₘ of the resulting signal.

Question: Does B1 bind?
Answer: binds

Question: Does B2 bind?
Answer: binds

Question: Does B3 bind?
Answer: binds

Question: Does B4 bind?
Answer: binds

Question: Does B5 bind?
Answer: binds

Question: Does B6 bind?
Answer: binds

Question: Does B7 bind?
Answer: binds

Question: Does B8 bind?
Answer: binds

Question: Does B9 bind?
Answer: binds

Question: Does B10 bind?
Answer: binds

Question: Does B11 bind?
Answer: binds

Question: Does B12 bind?
Answer: binds

Question: Does B13 bind?
Answer: binds

Question: Does B14 bind?
Answer: binds

Question: Does B15 bind?
Answer: binds

Question: Does B16 bind?
Answer: binds

Question: Does B17 bind?
Answer: binds

Question: Does B18 bind?
Answer: binds

Question: Does B19 bind?
Answer: binds

Question: Does B20 bind?
Answer: binds

Question: Does B21 bind?
Answer: binds

Question: Does B22 bind?
Answer: binds

Question: Does B23 bind?
Answer: binds

Question: Does B24 bind?
Answer: binds

Question: Does B25 bind?
Answer: binds

Question: Does B26 bind?
Answer: binds

Question: Does B27 bind?
Answer: binds

Question: Does B28 bind?
Answer: binds

Question: Does B29 bind?
Answer: binds

Question: Does B30 bind?
Answer: binds

Question: Does B31 bind?
Answer: binds

Question: Does B32 bind?
Answer: binds

Question: Does B33 bind?
Answer: binds

Question: Does B34 bind?
Answer: binds

Question: Does B35 bind?
Answer: binds

Question: Does B36 bind?
Answer: binds

Question: Does B37 bind?
Answer: binds

Question: Does B38 bind?
Answer: binds
